# Results reported in patent US20210283212A1 (RA PHARMACEUTICALS, published 2021).
# Starred links: 1 amine or outer side, 2 acyl side, 3 side chain; linkers in the order of their positions; H or OH if unused. Positions of bridges follow the written chain, without caps; N, C: chain ends. Non-standard residues stand in square brackets, D forms with d. Primed or numbered codes have the meaning given here. No end group written: not given here. Lys‑C8 = N-ε-caprylic lysine, CCCCCCCC(=O)NCCCC[C@H](N[*:1])C(=O)[*:2]; mXylyl(3) = bridging moiety between the two residues given in brackets; m‑xylyl = bridging moiety between the two residues given in brackets; mXylyl″ = bridging moiety between the two marked residues; Ala(1H-tetrazol-5-yl) = N[C@@H](Cc1nnn[nH]1)C(=O)O; Trp(7-aza) = N[C@@H](Cc1c[nH]c2ncccc12)C(=O)O; mXylyl(4) = bridging moiety between residues; NMeD = CN[C@@H](CC(=O)O)C(=O)O; dPhg = N[C@@H](C(=O)O)c1ccccc1; Chg = N[C@H](C(=O)O)C1CCCCC1; Phg = N[C@H](C(=O)O)c1ccccc1; Tle = CC(C)(C)[C@H](N)C(=O)O; Lys‑C12 = N-ε-lauryl lysine; NMeS = CN[C@@H](CO)C(=O)O; NMeA = CN[C@@H](C)C(=O)O; Pra = C#CC[C@H](N)C(=O)O; Nva = CCC[C@H](N)C(=O)O; Sar = CNCC(=O)O
# B1: R3023 (peptide)
# peptide: Ac-YPYC[Phg][Trp(7-aza)][Tle]E[Nva]NY[Nva]E-NH2
# SMILES: CCC[C@H](NC(=O)[C@H](Cc1ccc(O)cc1)NC(=O)[C@H](CC(N)=O)NC(=O)[C@H](CCC)NC(=O)[C@H](CCC(=O)O)NC(=O)[C@@H](NC(=O)[C@H](Cc1c[nH]c2ncccc12)NC(=O)[C@@H](NC(=O)[C@H](CS)NC(=O)[C@H](Cc1ccc(O)cc1)NC(=O)[C@@H]1CCCN1C(=O)[C@H](Cc1ccc(O)cc1)NC(C)=O)c1ccccc1)C(C)(C)C)C(=O)N[C@@H](CCC(=O)O)C(N)=O
# B2: R3028 (peptide)
# peptide: Ac-[Tle]Y[Trp(7-aza)]EYP[Phg][Nva]-NH2
# SMILES: CCC[C@H](NC(=O)[C@@H](NC(=O)[C@@H]1CCCN1C(=O)[C@H](Cc1ccc(O)cc1)NC(=O)[C@H](CCC(=O)O)NC(=O)[C@H](Cc1c[nH]c2ncccc12)NC(=O)[C@H](Cc1ccc(O)cc1)NC(=O)[C@@H](NC(C)=O)C(C)(C)C)c1ccccc1)C(N)=O
# B3: R3001 (peptide)
# peptide: Ac-[Nva]CYEN[Tle]Y[Trp(7-aza)]EY[Sar][Nva][NMeS]-NH2
# SMILES: CCC[C@H](NC(C)=O)C(=O)N[C@@H](CS)C(=O)N[C@@H](Cc1ccc(O)cc1)C(=O)N[C@@H](CCC(=O)O)C(=O)N[C@@H](CC(N)=O)C(=O)N[C@H](C(=O)N[C@@H](Cc1ccc(O)cc1)C(=O)N[C@@H](Cc1c[nH]c2ncccc12)C(=O)N[C@@H](CCC(=O)O)C(=O)N[C@@H](Cc1ccc(O)cc1)C(=O)N(C)CC(=O)N[C@@H](CCC)C(=O)N(C)[C@@H](CO)C(N)=O)C(C)(C)C
# Target: human C5 protein (human, UniProt P01031 19-673; P01031 678-1676)
# Experiment: cell-based or functional assay
row,Binder,"Avg. IC50, human hemolysis assay [nM]"
1,Ac-[Nva]C[Phg]T[Trp(7-aza)]EA[NMeS]HC[Nva]-NH2 (linker 2-10 via mXylyl(4)) [R3036],> 50000
2,Ac-CVERFCDVYWEFP-NH2 (linker 1-6 via mXylyl(3)) [R3141],24.5
3,Ac-CAERFCD[Tle]Y[Trp(7-aza)]EYP[Phg][Lys‑C12]-NH2 (linker 1-6 via m‑xylyl) [R3164],36
4,Ac-CVERFCA[Tle]Y[Trp(7-aza)]EYP[Phg][Nva]-NH2 (linker 1-6 via m‑xylyl) [R3157],84.5
5,B1,> 100000
6,Ac-CAERFCD[Tle]YWEYP[dPhg][Nva]-NH2 (linker 1-6 via mXylyl(3)) [R3149],13.6
7,Ac-[Nva]C[Phg]T[Trp(7-aza)]EY[NMeS]AC[Nva]-NH2 (linker 2-10 via mXylyl(4)) [R3038],140
8,Ac-CAERFCD[Tle]Y[Trp(7-aza)]EYP[Phg]K-NH2 (linker 1-6 via m‑xylyl) [R3161],7
9,Ac-CVERFCDVYWEF[Pra]-NH2 (linker 1-6 via mXylyl(3)) [R3147],138
10,Ac-C[Phg]T[Trp(7-aza)]EY[NMeS]HC-NH2 (linker 1-9 via mXylyl″) [R3015],> 3960
11,Ac-CVERFC[Ala(1H-tetrazol-5-yl)][Tle]Y[Trp(7-aza)]EYP[Chg][Nva]-NH2 (linker 1-6 via mXylyl(3)) [R3168],7.5
12,Ac-CAERFCD[Tle]YWEYP[Phg][Nva]-NH2 (linker 1-6 via mXylyl(3)) [R3148],8.5
13,Ac-[Nva]CAT[Trp(7-aza)]EY[NMeS]HC[Nva]-NH2 (linker 2-10 via mXylyl(4)) [R3032],> 10000
14,Ac-C[Tle]ERFCD[Tle]YWEF-NH2 (linker 1-6 via mXylyl(3)) [R3139],97.2
15,Ac-CVERACD[Tle]Y[Trp(7-aza)]EYP[Phg][Nva]-NH2 (linker 1-6 via mXylyl(3)) [R3155],1530
16,Ac-[Nva]C[Phg]T[Trp(7-aza)]AY[NMeS]HC[Nva]-NH2 (linker 2-10 via mXylyl(4)) [R3035],> 50000
17,MCSERYCEVRWEY-NH2 (linker 2-7 via mXylyl″) [R3020],24.6
18,Ac-C[Tle]Y[Trp(7-aza)]EY[NMeS]HC-NH2 (linker 1-9 via mXylyl″) [R3016],> 13000
19,Ac-CAERFCD[Tle]Y[Trp(7-aza)]EYP[Phg][Lys‑C8]-NH2 (linker 1-6 via m‑xylyl) [R3166],17.5
20,B2,> 10000
21,"CVERFCDGYWEYP ([mXylyl(1,6)]Ac-C-V-E-R-F-C-D-Tbg-Y-W-E-Y-P-NH2) [R3143]",18.6

row,Binder,"Avg. IC50, human hemolysis assay [nM]"
1,Ac-CVERFCDVY[Trp(7-aza)]EYP-NH2 (linker 1-6 via mXylyl(3)) [R3142],44.6
2,Ac-C[Phg]T[Trp(7-aza)]EY[NMeS]HC[Nva]P[Nva]-NH2 (linker 1-9 via mXylyl″) [R3014],1420
3,Ac-AC[Phg]T[Trp(7-aza)]EY[NMeS]HC[Nva]-NH2 (linker 2-10 via mXylyl(4)) [R3031],1090
4,B3,67.2
5,Ac-[Nva]C[Phg]T[Trp(7-aza)]EY[NMeA]HC[Nva]-NH2 (linker 2-10 via mXylyl(4)) [R3037],276
6,Ac-CVARFCD[Tle]Y[Trp(7-aza)]EYP[dPhg][Nva]-NH2 (linker 1-6 via mXylyl(3)) [R3151],165
7,Ac-[Nva]C[Phg]T[Trp(7-aza)]EY[NMeS]HC-NH2 (linker 2-10 via mXylyl″) [R3013],344
8,Ac-C[Tle]ERFCDVYWEF-NH2 (linker 1-6 via mXylyl(3)) [R3146],107
9,Ac-CVERFCA[Tle]Y[Trp(7-aza)]EYP[dPhg][Nva]-NH2 (linker 1-6 via m‑xylyl) [R3158],327
10,Ac-CVARFCD[Tle]Y[Trp(7-aza)]EYP[Phg][Nva]-NH2 (linker 1-6 via mXylyl(3)) [R3150],32
11,Ac-[Nva]CYEN[Tle]Y[Trp(7-aza)]ECP[Phg][Nva]-NH2 (linker 2-10 via mXylyl″) [R3018],> 5730
12,Ac-CVEAFCD[Tle]Y[Trp(7-aza)]EYP[Phg][Nva]-NH2 (linker 1-6 via mXylyl(3)) [R3153],175
13,Ac-CVEAFCD[Tle]Y[Trp(7-aza)]EYP[dPhg][Nva]-NH2 (linker 1-6 via mXylyl(3)) [R3154],592
14,Ac-CAERFCD[Tle]Y[Trp(7-aza)]EYP[dPhg]K-NH2 (linker 1-6 via m‑xylyl) [R3162],16.5
15,Ac-CVERFCDVYWEYP-NH2 (linker 1-6 via mXylyl(3)) [R3140],17.9
16,Ac-[Nva]C[Phg]A[Trp(7-aza)]EY[NMeS]HC[Nva]-NH2 (linker 2-10 via mXylyl(4)) [R3033],131
17,Ac-CVERFC[NMeD][Tle]Y[Trp(7-aza)]EYP[Chg][Nva]-NH2 (linker 1-6 via m‑xylyl) [R3172],12
18,Ac-[Nva]CYEN[Tle]Y[Trp(7-aza)]EYP[Phg][Nva]C-NH2 (linker 2-14 via mXylyl″) [R3019],1320
19,Ac-[Nva]C[Phg]T[Trp(7-aza)]EY[NMeS]HC[Nva]P[Nva]-NH2 (cysteine pairing not given here) [R3022],> 10200
20,Ac-CVERACD[Tle]Y[Trp(7-aza)]EYP[dPhg][Nva]-NH2 (linker 1-6 via mXylyl(3)) [R3156],> 10000
